B1: CPEB3 Ribozyme (parent)
chain: UAACAGGGGGCCACAGCAGAAGCGUUCACGUCGCAGCCCCUGUCAGAUUCUGGUGAAUCUGCGAAUUCUGCUGUAUAUCUC

Variants of B1 are the subject of the series. Briefly: self-cleavage, relative activity (ratio to wild type); higher = more cleavage; in vitro, sequencing. Summed up: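 Libraries of CPEB3 self-cleaving ribozyme mutants came from rounds of error-prone PCR and carried barcodes, which DNA sequencing matched to variants. In vitro transcription used T7 RNA polymerase at 37°C for 5 hours, with a further 15 min in DNase I before EDTA stopped the reaction; the ribozymes cleaved during both steps. The RNA was reverse transcribed with template switching and sequenced on Illumina. Relative activity is the cleaved/total read fraction of a variant divided by that of the unmutated ribozyme, averaged over three batches with at least 5 reads.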
In the case of C38U A56G, the self-cleavage came to 0.43.
Under C39A C40U stands 0.38; under C37G U80A, 1.18; under C37G U80G, 1.16.
Under C37G U80C stands 1; under C37G U72A, 0.92.
Under C37G U72C stands 1.14.
As for C37U A75G, the self-cleavage came out at 0.59.
The value for C38U U58C was 0.19; that for C38U U58G was 0.08.
The value for C37G U51G was 0.78.
The value for C37A G73C was 0.38; that for C37U U60C was 0.35.
Consider C37U U60A, for which the self-cleavage was 0.24.
For the variant C39A A57G, the self-cleavage worked out at 0.3.
Turning to C39A A57C, the self-cleavage came to 0.14.
Under C38G A57G stands 0.23; under C37U C50A, 0.47; under C38A U66A, 0.12.
The value for C38A U66C was 0.15; that for C38A U60A was 0.2.
On to C38A U60C, for which the self-cleavage turned out to be 0.37.
The value for C39A U49A was 0.23.
Under C39A U66C stands 0.39.
The value for C38A U74G was 0.27; that for C37U C59A was 0.22.
Regarding C37G C40A, the self-cleavage is 0.29.
The value for C37G U78C was 0.68.
As for C39G U49C, the self-cleavage amounted to 0.12.
Under C37A A65G stands 0.16.
The value for C37A A65U was 0.36.
The value for C38U U51A was 0.46.
Regarding C38U A47G, the self-cleavage was determined as 0.66.
Under C38U U41G stands 0.42; under C38U U41C, 0.87; under C38U U41A, 0.42.
Regarding C39U U49C, the self-cleavage came out at 0.31.
Under C37G C62G stands 0.5.
The value for C37A U76C was 0.35.
On to C39A U54C, for which the self-cleavage was found to be 0.25.
As for C39A U54A, the self-cleavage stood at 0.16.
Under C39A C71U stands 0.11; under C37U U72A, 0.27; under C37U U72C, 0.79.
The value for C38U U69C was 0.38; that for C38U U69A was 0.53.
The value for C38U U69G was 0.42; that for C39U A75G was 0.97; that for C37U U67C was 0.22.
In the case of C39U A65G, the self-cleavage came out at 0.32.
The value for C38G A75G was 0.27; that for C37G A47G was 0.58.
The value for C38U U49G was 0.37; that for C38U U49C was 0.34; that for C39A A64G was 0.05.
The value for C39A A64U was 0.22; that for C38U G63A was 0.6; that for C39G C50G was 0.1.
Turning to C39A U67C, the self-cleavage was determined as 0.16.
Under C39A U67A stands 0.34.
Under C37U A77G stands 0.78.
The value for C37U A77U was 0.91; that for C39G U48A was 0.15.
Consider C39G A45G, for which the self-cleavage came to 0.29.
The value for C37U G52A was 0.93; that for C38U A64U was 0.37; that for C38U A64C was 0.82.
The value for C38U A64G was 0.37; that for C39U C71U was 0.57; that for C38U A65G was 0.32.
In the case of C38U C39U, the self-cleavage is 0.26.
Under C39U U58C stands 0.3.
The value for C39G was 0.3; that for C39U was 0.91; that for C39A was 0.31.
Regarding C39A A56U, the self-cleavage is 0.09.
Under C39A A56G stands 0.26.
On to C37U U74C, for which the self-cleavage was determined as 1.12.
Under C37U U74A stands 1.17.
The value for G36U U78C was 0.17.
Under C39U U69A stands 0.44; under C39U U69C, 0.32; under C38U U67A, 0.41.
Regarding C37U A47G, the self-cleavage turned out to be 0.58.
The value for C37U A47U was 0.39; that for C38U U74A was 1.1.
Under C38U U74C stands 1.26.
Under C37A U74C stands 0.17; under C39U A77U, 0.81.
As to C39U A77G, the self-cleavage came out at 0.83.
Under C39G U60A stands 0.25; under C38G A64G, 0.2.
The value for C37U A65U was 0.16.
The value for C37U A65G was 0.28.
C37A U60A: the self-cleavage was found to be 0.14.
C37A U60C: the self-cleavage amounted to 0.09.
Under C39G C62U stands 0.08.
In the case of C37A U54G, the self-cleavage stood at 0.2.
With C39A U74C, the self-cleavage came to 0.49.
On to C39A U74A, for which the self-cleavage stood at 0.53.
The value for C37G G70C was 0.2; that for C38U A57U was 0.39; that for C38U A57G was 0.39.
For the variant C37U G61A, the self-cleavage stood at 0.21.
Under C39U U66C stands 0.37.
For C39G A57G, the self-cleavage is 0.19.
Turning to C38A G73U, the self-cleavage came to 0.91.
Regarding C38A G73C, the self-cleavage turned out to be 0.45.
The value for C39A A77U was 0.32; that for C39A A77G was 0.22.
The value for C38U U54A was 0.85; that for C38U U54C was 0.68; that for C37G was 0.8.
The value for C37A was 0.28.
In the case of C37U, the self-cleavage came out at 0.79.
As for C39A U43C, the self-cleavage worked out at 0.4.
The value for C39A U43A was 0.38.
The value for C37U C44U was 0.13; that for C37U U51C was 0.67; that for C37U U51G was 0.61.
The value for C37U U51A was 0.58.
Turning to C37A A75G, the self-cleavage turned out to be 0.19.
In the case of C38U G46A, the self-cleavage was determined as 0.24.
As to C39A C81G, the self-cleavage came to 0.16.
The value for C38G C59U was 0.22; that for C38A U51A was 0.17; that for C38A U51C was 0.18.
The value for C38A A45U was 0.33; that for C39A U51C was 0.34.
Under C39A U58C stands 0.19; under C39G A47G, 0.13.
In the case of C37G U49C, the self-cleavage amounted to 0.38.
The value for C39U U48C was 0.42; that for C38A U49C was 0.16; that for C38A U49A was 0.27.
The value for C39A U48A was 0.21.
The value for C39A U48C was 0.12; that for C38A A75U was 0.39; that for C39U C62A was 0.35.
With C37G U67A, the self-cleavage is 0.48.
Consider C39A U60A, for which the self-cleavage stood at 0.18.
Under C39A U60C stands 0.13; under C39A U60G, 0.09; under C37U U76A, 0.55.
The value for C37U U76C was 0.57; that for G36U U80C was 0.46.
Under G36U U80A stands 0.29; under C38A U48A, 0.36.
C37A C38A: the self-cleavage is 0.27.
As to C38G U67C, the self-cleavage is 0.11.
Under C39G A64C stands 0.17.
For the variant C39G A64U, the self-cleavage stood at 0.35.
The value for C39G A64G was 0.38; that for C38U A45U was 0.35; that for C38U A45G was 0.58.
The value for C37A C68U was 0.09; that for C38G U41C was 0.19.
With C37A G52U, the self-cleavage came to 0.35.
The value for C38A U78C was 0.33; that for C37U A45G was 0.5.
Regarding C37U A45C, the self-cleavage came to 0.29.
The value for C37U A45U was 0.4; that for C37G U48C was 0.45; that for C37A U67C was 0.13.
Consider C37A U67A, for which the self-cleavage came to 0.14.
As to C37A U67G, the self-cleavage turned out to be 0.17.
Under C37U C40G stands 0.22.

For the origin of these results see the RNAGym collection of RNA variant scans (doi:10.1093/nar/gkz1192).
